Measured values from paper PMC12753876 (2025).

B1: CRY1^(PHR WT) in pGADT7 (AD) [Arabidopsis thaliana] / HsFA3^WT in pGBKT7 (BD) [Arabidopsis thaliana] (parent complex)
chain 1: MSGSVSGCGSGGCSIVWFRRDLRVEDNPALAAAVRAGPVIALFVWAPEEEGHYHPGRVSRWWLKNSLAQLDSSLRSLGTCLITKRSTDSVASLLDVVKSTGASQIFFNHLYDPLSLVRDHRAKDVLTAQGIAVRSFNADLLYEPWEVTDELGRPFSMFAAFWERCLSMPYDPESPLLPPKKIISGDVSKCVADPLVFEDDSEKGSNALLARAWSPGWSNGDKALTTFINGPLLEYSKNRRKADSATTSFLSPHLHFGEVSVRKVFHLVRIKQVAWANEGNEAGEESVNLFLKSIGLREYSRYISFNHPYSHERPLLGHLKFFPWAVDENYFKAWRQGRTGYPLVDAGMRELWATGWLHDRIRVVVSSFFVKVLQLPWRWGMKYFWDTLLDADLESDALGWQYITGTLPDSREFDRIDNPQFEGYKFDPNGEYVRRWLPELSRLPTDWIHHPWNAPESVLQAAGIELGSNYPLPIVGLDEAKARLHEALSQMWQLEAASRAAIENGSEE
chain 2: not shown

Variants of: B1
Assay: yeast two-hybrid (beta-galactosidase, Miller units); n=3; parent: 280; read off a plot

Row | response | Variant
1 | ~280 Miller Units | chain 1 K332E, chain 1 R335E
2 | ~210 Miller Units | chain 1 R335E
3 | ~210 Miller Units | chain 1 K332E

Variants of: B1
Assay: as above
Remark: another data set of the same source

Row | response | Variant
4 | ~150 Miller Units | chain 1 R211A, chain 1 R435A

Variants of: B1
Assay: as above
Remark: another data set of the same source

Row | response | Variant
5 | ~300 Miller Units | chain 1 K332A, chain 1 R335A
